Assay results published in PMC3295232 (Journal of the American Chemical Society, 2012).
Residue numbers refer to the chain shown, from its start. Names may count otherwise. Marks after values point to notes of the source that are not given here.

B1: E51D: variant at the indicated position of YPDC (protein, UniProt P06169 2-563, looked up, variant E51D)
Pyruvate decarboxylase …: SEITLGKYLFERLKQVNVNTVFGLPGDFNLSLLDKIYEVEGMRWAGNANDLNAAYAADGYARIKGMSCIITTFGVGELSALNGIAGSYAEHVGVLHVVGVPSISAQAKQLLLHHTLGNGDFTVFHRMSANISETTAMITDIATAPAEIDRCIRTTYVTQRPVYLGLPANLVDLNVPAKLLQTPIDMSLKPNDAESEKEVIDTILALVKDAKNPVILADACCSRHDVKAETKKLIDLTQFPAFVTPMGKGSIDEQHPRYGGVYVGTLSKPEVKEAVESADLILSVGALLSDFNTGSFSYSYKTKNIVEFHSDHMKIRNATFPGVQMKFVLQKLLTTIADAAKGYKPVAVPARTPANAAVPASTPLKQEWMWNQLGNFLQEGDVVIAETGTSAFGINQTTFPNNTYGISQVLWGSIGFTTGATLGAAFAAEEIDPKKRVILFIGDGSLQLTVQEISTMIRWGLKPYLFVLNNDGYTIEKLIHGPKAQYNEIQGWDHLSLLPTFGAKDYETHRVATTGEWDKLTQDKSFNDNSKIRMIEIMLPVFDAPQNLVEQAKLTAATNAKQ
B2: E51A: variant at the indicated position of YPDC (protein, UniProt P06169 2-563, looked up, variant E51A)
Pyruvate decarboxylase …: B1 Pyruvate decarboxylase … with D50A
B3: E91D: variant at the indicated position of YPDC (protein, UniProt P06169 2-563, looked up, variant E91D)
Pyruvate decarboxylase …: B1 Pyruvate decarboxylase … with D50E, E90D
B4: E477Q: variant at the indicated position of YPDC (protein, UniProt P06169 2-563, looked up, variant E477Q)
Pyruvate decarboxylase …: B1 Pyruvate decarboxylase … with D50E, E476Q
B5: C221E/C222A: double-mutant of YPDC with a substitution at the neighboring Cys222; permanently activated form (protein, UniProt P06169 2-563, looked up, variant C221E C222A)
Pyruvate decarboxylase …: B1 Pyruvate decarboxylase … with D50E, C220E, C221A
B6: E51Q: variant at the indicated position of YPDC (protein, UniProt P06169 2-563, looked up, variant E51Q)
Pyruvate decarboxylase …: B1 Pyruvate decarboxylase … with D50Q
B7: D28A: variant at the indicated position of YPDC (protein, UniProt P06169 2-563, looked up, variant D28A)
Pyruvate decarboxylase …: B1 Pyruvate decarboxylase … with D27A, D50E
B8: YPDC: wild type yeast pyruvate decarboxylase (EC 4.1.1.1) isolated from Saccharomyces cerevisiae (protein, UniProt P06169 2-563, looked up)
Pyruvate decarboxylase …: B1 Pyruvate decarboxylase … with D50E
B9: E51N: variant at the indicated position of YPDC (protein, UniProt P06169 2-563, looked up, variant E51N)
Pyruvate decarboxylase …: B1 Pyruvate decarboxylase … with D50N

Tested on: yeast pyruvate decarboxylase (YPDC)
Experiment: YPDC assay coupled to alcohol dehydrogenase/NADH
Type: biochemical, Saccharomyces cerevisiae
Settings: per subunit; pyruvate as substrate; pH 6.0, 30 °C

With B1 as the molecule, how does the kcat / subunit read?
Its kcat / subunit is 0.049 s⁻¹.

With B2 as the molecule, how does the kcat / subunit read?
The kcat / subunit was 0.0043 s⁻¹.

Which kcat / subunit does the source give for B3 here?
Its kcat / subunit is 11 s⁻¹.

With B4 as the molecule, how does the kcat / subunit read?
Its kcat / subunit is 0.086 s⁻¹.

With B5 as the molecule, how does the kcat / subunit read?
Its kcat / subunit is 18.2 s⁻¹.

For B6, which kcat / subunit is on record?
Its kcat / subunit is 0.035 s⁻¹.

For B7, which kcat / subunit is on record?
Its kcat / subunit is 0.066 s⁻¹.

With B8 as the molecule, how does the kcat / subunit read?
The kcat / subunit was 60 s⁻¹.

Which kcat / subunit does the source give for B9 here?
Its kcat / subunit is 0.0024 s⁻¹.

Same assay, conditions: pyruvate as substrate

With B1 as the molecule, how does the “decrease in kcat as compared to YPDC” value read?
The value was 1000 fold.

With B2 as the molecule, how does the “decrease in kcat as compared to YPDC” value read?
Its value is 10,000 fold.

With B9 as the molecule, how does the “decrease in kcat as compared to YPDC” value read?
The value was 10,000 fold.

Same assay, conditions: pyruvate as substrate; pH 6.0, 30 °C

With B1 as the molecule, how does the S0.5 read?
Its S0.5 is 23.1 ± 1.3 mM.

Which S0.5 does the source give for B2 here?
Its S0.5 is 0.72 ± 0.1 mM.

For B6, which S0.5 is on record?
The S0.5 was 14.9 ± 1.3 mM.

With B8 as the molecule, how does the S0.5 read?
Its S0.5 is 1.1 ± 0.2 mM.

With B9 as the molecule, how does the S0.5 read?
The S0.5 was 31.5 ± 12 mM.

Tested on: yeast pyruvate decarboxylase (YPDC)
Experiment: not given
Settings: cited from earlier work

Which “reduction in activity compared to YPDC” value does the source give for B5 here?
Its value is 2–5 fold.

Same assay, conditions: pyruvate as substrate; cited from earlier work

For B3, which S0.5 is on record?
Its S0.5 is 1.79 ± 0.22 ^c mM.

For B4, which S0.5 is on record?
The S0.5 was 3.02 ± 0.22 ^b mM.

With B5 as the molecule, how does the S0.5 read?
The S0.5 was 1.47 ± 0.04 ^d mM.

Which S0.5 does the source give for B7 here?
Its S0.5 is 1.66 ± 0.25 ^b mM.

Tested on: yeast pyruvate decarboxylase (YPDC)
Experiment: not given
Settings: reaction with pyruvate; cited from earlier work

With B8 as the molecule, how does the “k′2 (net forward rate constant of LThDP formation)” value read?
Its value is 294 ± 20 s⁻¹.

Tested on: yeast pyruvate decarboxylase (YPDC)
Experiment: not given
Type: biochemical, Saccharomyces cerevisiae
Settings: 40 mM pyruvate in syringe, 10 °C, pH 6.0

Which “rate constant of accumulation of IP tautomer (LThDP), CD signal at 313 nm” value does the source give for B8 here?
Its value is 312 s⁻¹.
